Article PMC10491434, “SPOP targets the immune transcription factor IRF1 for proteasomal degradation” (eLife, 2023)

Biological target: T1, wild-type interferon regulatory factor 1 (wtIRF1) (human, UniProt P10914 1-325)
T1 sequence (looked up): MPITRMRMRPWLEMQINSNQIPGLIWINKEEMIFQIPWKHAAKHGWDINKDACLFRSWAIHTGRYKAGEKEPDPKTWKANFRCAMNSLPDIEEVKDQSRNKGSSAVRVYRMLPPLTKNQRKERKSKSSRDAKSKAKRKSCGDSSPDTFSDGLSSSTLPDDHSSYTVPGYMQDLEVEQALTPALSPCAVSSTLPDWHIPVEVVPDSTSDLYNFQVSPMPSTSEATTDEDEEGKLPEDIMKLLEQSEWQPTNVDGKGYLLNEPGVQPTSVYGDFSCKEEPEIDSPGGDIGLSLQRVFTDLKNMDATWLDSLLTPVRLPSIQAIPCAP
Experiment: cell-based or functional assay

- fold decrease in IRF1-driven ISRE luciferase reporter activity in HEK-293T cells with SPOP co-expression (dual luciferase assay): 11 fold
B1: Ollas-tagged wild-type speckle type BTB/POZ protein (wtSPOP) (natural protein, UniProt O43791 1-374, looked up)
chain: MSRVPSPPPPAEMSSGPVAESWCYTQIKVVKFSYMWTINNFSFCREEMGEVIKSSTFSSGANDKLKWCLRVNPKGLDEESKDYLSLYLLLVSCPKSEVRAKFKFSILNAKGEETKAMESQRAYRFVQGKDWGFKKFIRRDFLLDEANGLLPDDKLTLFCEVSVVQDSVNISGQNTMNMVKVPECRLADELGGLWENSRFTDCCLCVAGQEFQAHKAILAARSPVFSAMFEHEMEESKKNRVEINDVEPEVFKEMMCFIYTGKAPNLDKMADDLLAAADKYALERLKVMCEDALCSNLSVENAAEILILADLHSADQLKTQAVDFINYHASDVLETSGWKSMVVSHPHLVAEAYRSLASAQCPFLGPPRKRLKQS
